Experiment [1] has as its target T1, bovine serum albumin (bovine, UniProt P02769 25-607).
T1 construct: Control protein coated on wells; also called BSA
In words: FITC-peptide saturation binding on coated wells, fluorescence plate reader.

The target in experiment [2] is T2, purified Integrin αvβ3 (UniProt P06756 31-992; P05106 27-718, limits assumed).
T2 construct: Purified integrin coated on 96-well plates; also called integrin alpha-v-beta3; αVβ3 integrin
The experiment in a line: competitive homologous binding: varied unlabeled ALOS4 against 10 µM ALOS4-FITC on αvβ3-coated wells; competitive homologous binding, unlabeled ALOS4 against 10 µM ALOS4-FITC (panel D). The method, then:
(§1) FIGS. 12A-12D illustrate selective binding of ALOS4 to αvβ3. (A) ALOS4-FITC binding in wells pre-coated with integrin αvβ3. […] (B) ALOS4-FITC binding in wells coated with collagen or BSA. (C) Binding of random, FTIC-labeled cyclic peptide controls (DPDFP and DSLFP) in wells pre-coated with integrin αvβ3. (D) Competitive homologous binding of ALOS4 to αvβ3 integrin. 10 μM of ALOS4-FITC peptide was incubated with different concentrations of unlabeled ALOS4 on wells pre-coated with αvβ3. […] Data are expressed as percent reduction of maximal fluorescence signal.
(§2) Binding assay: The binding of peptides to immobilized purified integrin alpha-v-beta3 was evaluated using a fluorescein (FITC) labeled peptides. Purified integrin alpha-v-beta3 was first immobilized onto high-protein binding 96-well plates for 2 hour at 37° C. followed by blocking for two hours with 5% fat dry milk in TBS. After that, plates were washed four times with 200 μl TBS. a) For saturation assays plates were incubated with 100 μl of FITC-labeled peptides solutions in 0.01% BSA in Saline for 30 min at RT. […] After second wash 100 μl of TBS was added to the each well and fluorescence signal was read at excitation 490 nm and emission 525 nm using Enspire Plate reader (PerkinElmer). […]

Experiment [3] addresses T1, bovine serum albumin. The experiment in a line: FITC-labeled peptide added for 30 min to BSA-coated wells, fluorescence plate reader. The protocol: FIG. 7 is a graph illustrating binding of Fluorescein (FITC)—labeled ALOS peptides to purified Integrin αvβ3, collagen (CG) and bovine serum albumin (BSA). Peptides (concentrations 100 uM, 30 uM, 10 uM, luM) were added to integrin pre-coated wells for 30 min. The fluorescence was measured using Enspire plate reader (PerkinElmer). The plots were built using nonlinear regression analysis (GraphPad Prism).
Binding assay: The binding of peptides to immobilized purified integrin alpha-v-beta3 was evaluated using a fluorescein (FITC) labeled peptides. Purified integrin alpha-v-beta3 was first immobilized onto high-protein binding 96-well plates for 2 hour at 37° C. followed by blocking for two hours with 5% fat dry milk in TBS. After that, plates were washed four times with 200 μl TBS. a) For saturation assays plates were incubated with 100 μl of FITC-labeled peptides solutions in 0.01% BSA in Saline for 30 min at RT. B) For competition assays plates were incubated with different concentrations of unlabeled peptides for 30 min in RT followed by addition of fixed concentration of FITC-labeled peptides and additional incubation for 30 min. Wells were washed twice with TBS. After second wash 100 μl of TBS was added to the each well and fluorescence signal was read at excitation 490 nm and emission 525 nm using Enspire Plate reader (PerkinElmer). Binding data analysis was performed using Prism software (GraphPad Software, San Diego, Calif.). Binding curves were fit using nonlinear regression approaches.

In experiment [4] the target is T2, purified Integrin αvβ3. In words: saturation binding: ALOS4-FITC in wells pre-coated with integrin αvβ3, % of total binding. The method, then:
as §1, §2

Experiment [5] deals with T1, bovine serum albumin. In words: ALOS4-FITC in wells coated with BSA, % of total binding. The method, then: as §1, §2
For experiment [6], the target named is T2, purified Integrin αvβ3. In words: saturation binding of ALOS4-FITC in wells pre-coated with integrin αvβ3, fluorescence, nonlinear regression; direct saturation binding of ALOS4-FITC on αvβ3-coated wells (panel A). The protocol:
as §1, §2

Bridge positions count the residues as written; N and C are the ends. Ends that are not written are not given here.

One may read the Kd as the concentration at which binding is half-saturated. The EC50 (read off the curve) is the concentration that produces a half-maximal response.

T2 sequence (P06756 31-992 limits assumed, chain 1 of 2): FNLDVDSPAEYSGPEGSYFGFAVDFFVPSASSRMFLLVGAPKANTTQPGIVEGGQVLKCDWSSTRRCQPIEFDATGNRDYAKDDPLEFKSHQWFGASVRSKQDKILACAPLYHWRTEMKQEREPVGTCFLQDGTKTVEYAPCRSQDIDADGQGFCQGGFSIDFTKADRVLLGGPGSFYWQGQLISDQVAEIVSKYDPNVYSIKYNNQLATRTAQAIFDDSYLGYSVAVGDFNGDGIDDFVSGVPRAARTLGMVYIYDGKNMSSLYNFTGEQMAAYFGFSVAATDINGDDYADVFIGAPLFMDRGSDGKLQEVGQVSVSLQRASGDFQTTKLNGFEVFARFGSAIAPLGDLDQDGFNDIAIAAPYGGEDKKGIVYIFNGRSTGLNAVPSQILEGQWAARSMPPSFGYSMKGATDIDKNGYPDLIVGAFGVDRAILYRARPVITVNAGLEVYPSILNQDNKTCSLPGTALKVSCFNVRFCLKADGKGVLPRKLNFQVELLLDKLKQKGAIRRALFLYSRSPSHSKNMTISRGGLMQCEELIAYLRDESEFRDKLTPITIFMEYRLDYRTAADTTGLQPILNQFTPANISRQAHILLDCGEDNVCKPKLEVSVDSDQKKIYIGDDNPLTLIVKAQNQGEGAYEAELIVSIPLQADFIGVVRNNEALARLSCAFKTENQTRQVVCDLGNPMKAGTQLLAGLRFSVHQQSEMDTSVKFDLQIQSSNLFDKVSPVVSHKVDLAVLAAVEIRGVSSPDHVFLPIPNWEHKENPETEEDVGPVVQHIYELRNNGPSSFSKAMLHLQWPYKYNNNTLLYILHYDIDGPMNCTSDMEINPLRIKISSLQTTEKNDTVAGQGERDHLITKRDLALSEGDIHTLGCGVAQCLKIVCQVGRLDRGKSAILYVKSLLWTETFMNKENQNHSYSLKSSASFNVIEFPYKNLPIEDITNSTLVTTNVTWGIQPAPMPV
T2 sequence (P05106 27-718 limits assumed, chain 2 of 2): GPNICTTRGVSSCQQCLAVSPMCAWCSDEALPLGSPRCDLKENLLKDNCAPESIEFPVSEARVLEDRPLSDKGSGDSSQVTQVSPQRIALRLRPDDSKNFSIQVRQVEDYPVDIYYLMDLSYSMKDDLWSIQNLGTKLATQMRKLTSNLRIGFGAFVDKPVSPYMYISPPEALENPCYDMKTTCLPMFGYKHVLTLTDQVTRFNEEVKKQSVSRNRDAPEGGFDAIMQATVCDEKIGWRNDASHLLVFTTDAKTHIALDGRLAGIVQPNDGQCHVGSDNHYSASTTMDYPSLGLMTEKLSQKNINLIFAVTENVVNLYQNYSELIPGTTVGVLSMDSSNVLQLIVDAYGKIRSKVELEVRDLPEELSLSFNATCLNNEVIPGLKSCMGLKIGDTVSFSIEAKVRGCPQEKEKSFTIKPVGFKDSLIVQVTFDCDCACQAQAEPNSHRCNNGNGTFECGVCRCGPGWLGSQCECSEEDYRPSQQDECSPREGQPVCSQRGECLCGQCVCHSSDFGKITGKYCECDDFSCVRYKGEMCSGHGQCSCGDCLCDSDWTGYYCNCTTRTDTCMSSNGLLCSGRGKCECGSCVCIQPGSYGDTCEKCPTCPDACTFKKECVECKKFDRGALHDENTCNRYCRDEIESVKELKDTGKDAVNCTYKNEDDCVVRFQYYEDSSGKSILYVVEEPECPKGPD
T1 sequence (P02769 25-607 limits assumed): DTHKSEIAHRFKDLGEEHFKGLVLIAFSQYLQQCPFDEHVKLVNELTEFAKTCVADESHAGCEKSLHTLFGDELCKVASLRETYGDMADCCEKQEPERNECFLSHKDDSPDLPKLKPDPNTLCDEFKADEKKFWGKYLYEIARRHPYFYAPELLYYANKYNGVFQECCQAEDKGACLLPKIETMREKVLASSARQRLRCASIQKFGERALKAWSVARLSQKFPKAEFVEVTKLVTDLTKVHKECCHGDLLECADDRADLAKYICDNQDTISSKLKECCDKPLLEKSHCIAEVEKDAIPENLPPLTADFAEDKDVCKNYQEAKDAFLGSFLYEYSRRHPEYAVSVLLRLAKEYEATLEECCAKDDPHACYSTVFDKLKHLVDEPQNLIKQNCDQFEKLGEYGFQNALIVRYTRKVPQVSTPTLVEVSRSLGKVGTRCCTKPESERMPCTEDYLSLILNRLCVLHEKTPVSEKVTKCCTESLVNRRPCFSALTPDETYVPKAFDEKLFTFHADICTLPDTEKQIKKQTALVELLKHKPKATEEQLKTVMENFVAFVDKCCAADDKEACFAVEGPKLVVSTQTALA

B1: ALOS-5, fluorescein (FITC)-labeled (peptide)
peptide: CPLHARLPC
modifications: not fully specified (bridges); cysteine pairing not given here; also: FITC label, position not given here
notes: Synthetic peptide from the phage display screen; also called ALOS peptides; ALOSs
In the case of B1, in the experiment with bovine serum albumin [1], the binding result is “no binding”.

B2: unlabeled ALOS4 (peptide)
peptide: CSSAGSLFC
modifications: disulfide 1-9 (inferred)
notes: Its concentration was varied
B2: the dissociation constant (Kd) in the experiment with purified Integrin αvβ3 [2] was found to be 2550 nM.

B3: ALOS-1, fluorescein (FITC)-labeled (peptide)
peptide: CNLSSSWIC
modifications: not fully specified (bridges); cysteine pairing not given here; also: FITC label, position not given here
notes: as for B1
On to B3, for which the binding result with bovine serum albumin [3] was “no binding (tested: 100 µM)”.

B4: ALOS-4, fluorescein (FITC)-labeled (peptide)
peptide: CSSAGSLFC
modifications: disulfide 1-9 (inferred); also: FITC label, position not given here
notes: Synthetic peptide from the phage display screen; also called ALOS4-FITC; ALOS peptides
For the molecule B4, the 50% effective concentration (EC50 (read off the curve)) in the experiment with purified Integrin αvβ3 [4] was ~200 nM. Also, in the experiment with bovine serum albumin [5], the binding result is on record as “no binding (tested: 100 µM)”. Also, the Kd with purified Integrin αvβ3 [6] came out at 192 nM.

B5: ALOS-3, fluorescein (FITC)-labeled (peptide)
peptide: CAPSPSRLC
modifications: not fully specified (bridges); cysteine pairing not given here; also: FITC label, position not given here
notes: as for B1
On to B5, for which, in the experiment with bovine serum albumin [3], the binding result is recorded as “no binding (tested: 100 µM)”.

B6: ALOS-2, fluorescein (FITC)-labeled (peptide)
peptide: CPPSNHLLC
modifications: not fully specified (bridges); cysteine pairing not given here; also: FITC label, position not given here
notes: as for B1
B6: the binding result in the experiment with bovine serum albumin [3] was “no binding (tested: 100 µM)”.

(Values after patent publication US20190194253A1 (ARIEL UNIVERSITY RESEARCH AND DEVELOPMENT, published 2019).)
